# B1: ALK tyrosine kinase receptor (Homo sapiens), Q9UM73 (parent)
# chain: MGAIGLLWLLPLLLSTAAVGSGMGTGQRAGSPAAGPPLQPREPLSYSRLQRKSLAVDFVVPSLFRVYARDLLLPPSSSELKAGRPEARGSLALDCAPLLRLLGPAPGVSWTAGSPAPAEARTLSRVLKGGSVRKLRRAKQLVLELGEEAILEGCVGPPGEAAVGLLQFNLSELFSWWIRQGEGRLRIRLMPEKKASEVGREGRLSAAIRASQPRLLFQIFGTGHSSLESPTNMPSPSPDYFTWNLTWIMKDSFPFLSHRSRYGLECSFDFPCELEYSPPLHDLRNQSWSWRRIPSEEASQMDLLDGPGAERSKEMPRGSFLLLNTSADSKHTILSPWMRSSSEHCTLAVSVHRHLQPSGRYIAQLLPHNEAAREILLMPTPGKHGWTVLQGRIGRPDNPFRVALEYISSGNRSLSAVDFFALKNCSEGTSPGSKMALQSSFTCWNGTVLQLGQACDFHQDCAQGEDESQMCRKLPVGFYCNFEDGFCGWTQGTLSPHTPQWQVRTLKDARFQDHQDHALLLSTTDVPASESATVTSATFPAPIKSSPCELRMSWLIRGVLRGNVSLVLVENKTGKEQGRMVWHVAAYEGLSLWQWMVLPLLDVSDRFWLQMVAWWGQGSRAIVAFDNISISLDCYLTISGEDKILQNTAPKSRNLFERNPNKELKPGENSPRQTPIFDPTVHWLFTTCGASGPHGPTQAQCNNAYQNSNLSVEVGSEGPLKGIQIWKVPATDTYSISGYGAAGGKGGKNTMMRSHGVSVLGIFNLEKDDMLYILVGQQGEDACPSTNQLIQKVCIGENNVIEEEIRVNRSVHEWAGGGGGGGGATYVFKMKDGVPVPLIIAAGGGGRAYGAKTDTFHPERLENNSSVLGLNGNSGAAGGGGGWNDNTSLLWAGKSLQEGATGGHSCPQAMKKWGWETRGGFGGGGGGCSSGGGGGGYIGGNAASNNDPEMDGEDGVSFISPLGILYTPALKVMEGHGEVNIKHYLNCSHCEVDECHMDPESHKVICFCDHGTVLAEDGVSCIVSPTPEPHLPLSLILSVVTSALVAALVLAFSGIMIVYRRKHQELQAMQMELQSPEYKLSKLRTSTIMTDYNPNYCFAGKTSSISDLKEVPRKNITLIRGLGHGAFGEVYEGQVSGMPNDPSPLQVAVKTLPEVCSEQDELDFLMEALIISKFNHQNIVRCIGVSLQSLPRFILLELMAGGDLKSFLRETRPRPSQPSSLAMLDLLHVARDIACGCQYLEENHFIHRDIAARNCLLTCPGPGRVAKIGDFGMARDIYRASYYRKGGCAMLPVKWMPPEAFMEGIFTSKTDTWSFGVLLWEIFSLGYMPYPSKSNQEVLEFVTSGGRMDPPKNCPGPVYRIMTQCWQHQPEDRPNFAIILERIEYCTQDPDVINTALPIEYGPLVEEEEKVPVRPKDPEGVPPLLVSQQAKREEERSPAAPPPLPTTSSGKAAKKPTAAEISVRVPRGPAVEGGHVNMAFSQSNPPSELHKVHGSRNKPTSLWNPTYGSWFTEKPTKKNNPIAKKEPHDRGNLGLEGSCTVPPNVATGRLPGASLLLEPSSLTANMKEVPLFRLRHFPCGNVNYGYQQQGLPLEAATAPGAGHYEDTILKSKNSMNQPGP
# partner: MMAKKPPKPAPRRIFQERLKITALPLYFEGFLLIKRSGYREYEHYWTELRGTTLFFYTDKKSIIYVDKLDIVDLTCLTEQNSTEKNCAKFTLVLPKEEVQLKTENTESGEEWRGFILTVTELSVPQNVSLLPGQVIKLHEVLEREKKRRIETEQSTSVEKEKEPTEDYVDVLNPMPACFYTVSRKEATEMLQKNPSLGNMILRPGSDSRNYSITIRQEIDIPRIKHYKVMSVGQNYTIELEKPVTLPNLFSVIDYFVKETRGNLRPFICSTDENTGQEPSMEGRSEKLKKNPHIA
# B2: ALK tyrosine kinase receptor (Homo sapiens), Q9UM73 (parent)
# chain: B1 chain
# partner: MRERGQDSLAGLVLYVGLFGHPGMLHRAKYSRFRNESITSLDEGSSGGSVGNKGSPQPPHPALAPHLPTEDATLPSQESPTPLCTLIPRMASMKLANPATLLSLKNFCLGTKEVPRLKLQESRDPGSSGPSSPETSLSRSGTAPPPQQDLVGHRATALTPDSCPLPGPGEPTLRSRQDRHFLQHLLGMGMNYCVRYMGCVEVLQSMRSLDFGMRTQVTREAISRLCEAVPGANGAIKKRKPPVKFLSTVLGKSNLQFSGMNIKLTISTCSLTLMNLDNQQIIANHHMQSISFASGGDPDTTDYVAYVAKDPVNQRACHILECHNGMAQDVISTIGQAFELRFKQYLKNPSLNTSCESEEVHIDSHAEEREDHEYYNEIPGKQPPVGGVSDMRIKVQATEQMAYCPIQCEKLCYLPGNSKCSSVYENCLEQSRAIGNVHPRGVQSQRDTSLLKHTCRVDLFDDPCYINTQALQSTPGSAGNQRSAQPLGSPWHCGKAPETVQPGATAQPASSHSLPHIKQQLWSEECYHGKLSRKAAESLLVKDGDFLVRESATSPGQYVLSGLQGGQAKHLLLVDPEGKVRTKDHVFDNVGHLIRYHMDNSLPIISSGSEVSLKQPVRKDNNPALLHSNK
# B3: ALK tyrosine kinase receptor (Homo sapiens), Q9UM73 (parent)
# chain: B1 chain
# Variants of: B1
# Details: with stap1_human STAP1, Q9ULZ2
row,Variant,effect of a mutation on the interaction
1,L1196M,increasing interaction strength
2,I1250T,decreasing interaction strength
3,F1245C,increasing interaction strength

# Variants of: B2
# Details: with shc4_human SHC4, Q6S5L8
row,Variant,effect of a mutation on the interaction
1,I1250T,decreasing interaction strength
2,F1245C,increasing interaction strength
3,L1196M,increasing interaction strength

# Variants of: B3
# Details: with abl1_human ABL1, P00519
# Sequence of abl1_human ABL1, P00519 (P00519 whole entry): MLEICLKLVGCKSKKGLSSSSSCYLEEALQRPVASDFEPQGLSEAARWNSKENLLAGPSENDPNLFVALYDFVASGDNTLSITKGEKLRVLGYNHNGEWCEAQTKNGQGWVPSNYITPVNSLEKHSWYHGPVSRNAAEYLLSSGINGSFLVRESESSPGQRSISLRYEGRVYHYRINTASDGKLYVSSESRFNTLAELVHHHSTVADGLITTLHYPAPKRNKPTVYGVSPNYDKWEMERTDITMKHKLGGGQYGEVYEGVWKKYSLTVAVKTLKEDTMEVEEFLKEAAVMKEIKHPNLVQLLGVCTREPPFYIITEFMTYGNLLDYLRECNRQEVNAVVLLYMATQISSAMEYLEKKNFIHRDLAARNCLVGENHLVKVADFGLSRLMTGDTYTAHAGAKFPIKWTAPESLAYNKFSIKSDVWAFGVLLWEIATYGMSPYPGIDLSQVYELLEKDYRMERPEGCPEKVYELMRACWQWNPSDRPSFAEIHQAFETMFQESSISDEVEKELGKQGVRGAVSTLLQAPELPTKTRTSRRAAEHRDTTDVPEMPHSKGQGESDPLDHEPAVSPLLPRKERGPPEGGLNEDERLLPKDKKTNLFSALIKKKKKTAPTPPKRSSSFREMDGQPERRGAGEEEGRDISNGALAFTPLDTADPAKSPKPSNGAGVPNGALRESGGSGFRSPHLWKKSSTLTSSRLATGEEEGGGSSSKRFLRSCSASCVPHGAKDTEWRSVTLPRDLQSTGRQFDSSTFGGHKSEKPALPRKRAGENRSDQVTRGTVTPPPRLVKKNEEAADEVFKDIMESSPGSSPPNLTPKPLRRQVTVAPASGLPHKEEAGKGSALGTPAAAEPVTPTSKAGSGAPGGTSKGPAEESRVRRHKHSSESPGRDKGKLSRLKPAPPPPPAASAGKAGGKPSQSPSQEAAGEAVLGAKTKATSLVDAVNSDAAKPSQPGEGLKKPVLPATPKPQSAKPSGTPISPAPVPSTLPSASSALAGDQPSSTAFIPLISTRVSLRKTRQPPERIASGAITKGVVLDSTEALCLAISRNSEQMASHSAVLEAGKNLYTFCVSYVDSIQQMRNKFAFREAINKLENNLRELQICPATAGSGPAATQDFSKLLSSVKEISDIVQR
row,Variant,effect of a mutation on the interaction
1,I1250T,decreasing interaction strength
2,L1196M,increasing interaction strength

# Variants of: B3
# Details: with frk_human FRK
row,Variant,effect of a mutation on the interaction
1,I1250T,decreasing interaction strength
2,L1196M,increasing interaction strength

# Variants of: B3
# Details: with sh24b_human SH2D4B
row,Variant,effect of a mutation on the interaction
1,I1250T,decreasing interaction strength
2,L1196M,increasing interaction strength

# Variants of: B3
# Details: with srms_human SRMS
row,Variant,effect of a mutation on the interaction
1,I1250T,decreasing interaction strength
2,L1196M,increasing interaction strength

# Variants of: B3
# Details: with sta5b_human STAT5B
row,Variant,effect of a mutation on the interaction
1,I1250T,decreasing interaction strength
2,L1196M,increasing interaction strength

# Variants of: B3
# Details: with syk_human KARS1, Q15046
# Sequence of syk_human KARS1, Q15046 (Q15046 whole entry, looked up): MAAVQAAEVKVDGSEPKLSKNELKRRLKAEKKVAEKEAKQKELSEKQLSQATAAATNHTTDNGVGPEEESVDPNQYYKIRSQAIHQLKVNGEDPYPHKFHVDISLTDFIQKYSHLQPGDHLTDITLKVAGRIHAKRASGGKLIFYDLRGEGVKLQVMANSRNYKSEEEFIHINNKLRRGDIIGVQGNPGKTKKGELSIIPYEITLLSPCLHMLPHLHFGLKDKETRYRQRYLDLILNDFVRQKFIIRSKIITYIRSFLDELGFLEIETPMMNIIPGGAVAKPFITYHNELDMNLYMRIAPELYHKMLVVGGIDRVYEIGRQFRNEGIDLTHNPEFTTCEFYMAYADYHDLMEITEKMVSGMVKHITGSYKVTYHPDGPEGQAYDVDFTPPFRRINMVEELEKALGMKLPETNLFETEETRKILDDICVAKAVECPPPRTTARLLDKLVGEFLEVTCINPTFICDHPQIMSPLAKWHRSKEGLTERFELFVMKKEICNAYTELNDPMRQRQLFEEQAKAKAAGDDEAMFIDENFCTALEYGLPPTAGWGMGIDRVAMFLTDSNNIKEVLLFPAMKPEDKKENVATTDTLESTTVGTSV
row,Variant,effect of a mutation on the interaction
1,I1250T,decreasing interaction strength
2,L1196M,increasing interaction strength

# Variants of: B3
# Details: with crk_human CRK
row,Variant,effect of a mutation on the interaction
1,I1250T,decreasing interaction strength
2,L1196M,increasing interaction strength

# Variants of: B3
# Details: with fgr_human FGR
row,Variant,effect of a mutation on the interaction
1,I1250T,decreasing interaction strength
2,L1196M,increasing interaction strength

# Variants of: B3
# Details: with grb14_human GRB14, Q14449
# Sequence of grb14_human GRB14, Q14449 (Q14449 whole entry): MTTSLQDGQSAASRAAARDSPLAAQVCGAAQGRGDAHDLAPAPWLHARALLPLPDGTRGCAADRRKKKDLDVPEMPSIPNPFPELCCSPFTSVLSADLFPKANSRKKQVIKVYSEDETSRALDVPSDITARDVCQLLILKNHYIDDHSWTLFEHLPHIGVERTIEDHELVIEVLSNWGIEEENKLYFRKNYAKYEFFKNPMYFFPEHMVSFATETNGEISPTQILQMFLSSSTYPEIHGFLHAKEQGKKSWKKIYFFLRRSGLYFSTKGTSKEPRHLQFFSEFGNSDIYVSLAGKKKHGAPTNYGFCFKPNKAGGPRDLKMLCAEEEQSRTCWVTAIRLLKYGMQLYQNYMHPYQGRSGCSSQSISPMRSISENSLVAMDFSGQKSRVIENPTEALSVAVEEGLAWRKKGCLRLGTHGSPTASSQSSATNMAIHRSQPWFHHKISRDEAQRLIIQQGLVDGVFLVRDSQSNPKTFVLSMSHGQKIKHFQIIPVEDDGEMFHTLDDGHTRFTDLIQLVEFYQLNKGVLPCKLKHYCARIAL
row,Variant,effect of a mutation on the interaction
1,I1250T,decreasing interaction strength
2,L1196M,increasing interaction strength

# Variants of: B3
# Details: with hck_human HCK
row,Variant,effect of a mutation on the interaction
1,I1250T,decreasing interaction strength
2,L1196M,increasing interaction strength

# Variants of: B3
# Details: with lyn_human LYN
row,Variant,effect of a mutation on the interaction
1,I1250T,decreasing interaction strength
2,L1196M,increasing interaction strength

# Variants of: B3
# Details: with nck2_human NCK2, O43639
# Sequence of nck2_human NCK2, O43639 (O43639 whole entry): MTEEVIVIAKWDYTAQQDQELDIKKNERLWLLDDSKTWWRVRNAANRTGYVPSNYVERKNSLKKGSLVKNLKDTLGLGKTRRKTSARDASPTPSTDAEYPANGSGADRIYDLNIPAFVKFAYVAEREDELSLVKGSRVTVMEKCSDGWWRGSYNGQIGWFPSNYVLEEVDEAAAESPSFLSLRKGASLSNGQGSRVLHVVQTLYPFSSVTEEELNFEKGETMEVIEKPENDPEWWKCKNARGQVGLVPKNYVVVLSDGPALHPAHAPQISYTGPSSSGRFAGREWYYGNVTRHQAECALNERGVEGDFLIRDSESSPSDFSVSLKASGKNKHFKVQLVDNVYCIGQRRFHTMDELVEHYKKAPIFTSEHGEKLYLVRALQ
row,Variant,effect of a mutation on the interaction
1,I1250T,decreasing interaction strength
2,L1196M,increasing interaction strength

# Variants of: B3
# Details: with sh2b1_human SH2B1, Q9NRF2
row,Variant,effect of a mutation on the interaction
1,I1250T,decreasing interaction strength
2,L1196M,increasing interaction strength

# Variants of: B3
# Details: with shb_human SHB
row,Variant,effect of a mutation on the interaction
1,I1250T,decreasing interaction strength
2,L1196M,increasing interaction strength

# Variants of: B3
# Details: with socs3_human SOCS3, O14543
# Sequence of socs3_human SOCS3, O14543 (O14543 whole entry): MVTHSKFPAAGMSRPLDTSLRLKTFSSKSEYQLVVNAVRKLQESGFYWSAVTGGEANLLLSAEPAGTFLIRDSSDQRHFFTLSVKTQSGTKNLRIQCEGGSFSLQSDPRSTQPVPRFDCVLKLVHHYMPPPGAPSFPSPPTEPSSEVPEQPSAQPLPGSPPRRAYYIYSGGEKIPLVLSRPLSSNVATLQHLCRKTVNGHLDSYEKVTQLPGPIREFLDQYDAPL
row,Variant,effect of a mutation on the interaction
1,I1250T,decreasing interaction strength
2,L1196M,increasing interaction strength

# Variants of: B3
# Details: with stat2_human STAT2, P52630
# Sequence of stat2_human STAT2, P52630 (P52630 whole entry): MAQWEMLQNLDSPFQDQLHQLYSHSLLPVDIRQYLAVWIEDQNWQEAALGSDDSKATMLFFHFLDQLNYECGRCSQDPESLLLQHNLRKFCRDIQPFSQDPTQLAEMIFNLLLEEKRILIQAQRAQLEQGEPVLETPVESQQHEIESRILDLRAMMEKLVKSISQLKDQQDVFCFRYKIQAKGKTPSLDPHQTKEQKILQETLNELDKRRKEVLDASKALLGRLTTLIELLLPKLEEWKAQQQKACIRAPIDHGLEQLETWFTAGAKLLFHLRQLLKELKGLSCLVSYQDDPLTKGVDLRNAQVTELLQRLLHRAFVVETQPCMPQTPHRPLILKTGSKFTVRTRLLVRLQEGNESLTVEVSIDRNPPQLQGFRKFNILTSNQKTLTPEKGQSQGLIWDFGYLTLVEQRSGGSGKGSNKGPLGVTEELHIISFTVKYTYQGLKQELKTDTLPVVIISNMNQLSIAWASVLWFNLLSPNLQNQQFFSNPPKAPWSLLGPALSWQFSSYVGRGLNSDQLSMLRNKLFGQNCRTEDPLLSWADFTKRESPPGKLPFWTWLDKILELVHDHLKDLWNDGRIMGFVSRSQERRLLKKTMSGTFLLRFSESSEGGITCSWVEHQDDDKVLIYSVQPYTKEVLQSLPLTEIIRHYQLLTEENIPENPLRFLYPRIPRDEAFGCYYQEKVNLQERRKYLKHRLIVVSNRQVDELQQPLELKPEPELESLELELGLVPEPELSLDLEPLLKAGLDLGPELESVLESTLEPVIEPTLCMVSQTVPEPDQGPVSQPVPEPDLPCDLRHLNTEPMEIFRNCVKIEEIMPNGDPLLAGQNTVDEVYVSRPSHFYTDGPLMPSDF
row,Variant,effect of a mutation on the interaction
1,I1250T,decreasing interaction strength
2,L1196M,increasing interaction strength

# Variants of: B3
# Details: with zap70_human ZAP70, P43403
# Sequence of zap70_human ZAP70, P43403 (P43403 whole entry): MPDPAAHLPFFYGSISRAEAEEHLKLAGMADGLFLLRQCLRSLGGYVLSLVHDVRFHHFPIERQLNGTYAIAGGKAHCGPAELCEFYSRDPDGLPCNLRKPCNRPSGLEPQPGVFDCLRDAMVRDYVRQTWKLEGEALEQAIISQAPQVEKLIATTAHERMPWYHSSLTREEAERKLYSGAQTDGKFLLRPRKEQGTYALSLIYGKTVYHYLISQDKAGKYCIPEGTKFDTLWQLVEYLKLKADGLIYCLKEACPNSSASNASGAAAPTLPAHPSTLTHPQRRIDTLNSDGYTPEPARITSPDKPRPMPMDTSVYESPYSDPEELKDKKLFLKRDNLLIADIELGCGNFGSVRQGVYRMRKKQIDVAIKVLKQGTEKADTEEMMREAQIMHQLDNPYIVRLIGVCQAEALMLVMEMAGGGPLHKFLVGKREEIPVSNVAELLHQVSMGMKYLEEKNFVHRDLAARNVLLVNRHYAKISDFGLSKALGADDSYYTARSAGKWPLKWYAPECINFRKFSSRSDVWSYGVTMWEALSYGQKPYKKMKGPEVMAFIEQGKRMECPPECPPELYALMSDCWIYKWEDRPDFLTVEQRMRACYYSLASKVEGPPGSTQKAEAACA
row,Variant,effect of a mutation on the interaction
1,I1250T,decreasing interaction strength
2,L1196M,increasing interaction strength

# Variants of: B3
# Details: with rack1_human RACK1, P63244
row,Variant,effect of a mutation on the interaction
1,I1250T,decreasing interaction strength
2,L1196M,increasing interaction strength

# — IntAct's records for PubMed 34606829
